From PMC6956856

Target: Drosophila melanogaster SERINC (Drosophila melanogaster)
Assay: cryo-EM structure

stoichiometry N: 6
Substance: Drosophila melanogaster SERINC (natural protein)
